From patent US20210024620A1

Key:
[1] = biological target: rat FcRn (rat) (UniProt P13599); assay: Biacore SPR, pH 6.0
[2] = biological target: rat FcRn (rat) (UniProt P13599); assay: Biacore, pH 6.0, apparent KD
[3] = biological target: rat FcRn (rat) (UniProt P13599); assay: Biacore SPR, pH 7.4, 1000 nM antibody
[4] = biological target: biotinylated human FcRn (human) (UniProt P55899); assay: Biacore SPR, pH 7.4, 1000 nM antibody
[5] = biological target: FcRn immobilised on the FcRn affinity column (biotinylated cynoFcRn in one experiment, biotinylated hFcRn in another); assay: FcRn affinity chromatography, linear pH gradient; species of the immobilised FcRn not given
[6] = biological target: rat FcRn (rat) (UniProt P13599); assay: Biacore SPR, pH 7.4
[7] = biological target: biotinylated human FcRn (human) (UniProt P55899); assay: Biacore SPR, pH 6.0
[8] = biological target: biotinylated human FcRn (p51 subunit residues 24-297 with C-terminal Avi-tag; beta2-microglobulin residues 21-119) (human) (UniProt P55899); assay: Biacore SPR, pH 6.0
[9] = biological target: biotinylated human FcRn (human) (UniProt P55899); assay: Biacore SPR, pH 7.4
[10] = biological target: biotinylated human FcRn (p51 subunit residues 24-297 with C-terminal Avi-tag; beta2-microglobulin residues 21-119) (human) (UniProt P55899); assay: Biacore; affinity at pH 6.0 (M^-1) over steady state RU at pH 7.4
[11] = biological target: biotinylated human FcRn (p51 subunit residues 24-297 with C-terminal Avi-tag; beta2-microglobulin residues 21-119) (human) (UniProt P55899); assay: Biacore SPR, pH 7.4, steady state
[12] = biological target: biotinylated human FcRn (p51 subunit residues 24-297 with C-terminal Avi-tag; beta2-microglobulin residues 21-119) (human) (UniProt P55899); assay: Biacore; inverse ratio (RU at pH 7.4 over affinity at pH 6.0)
[13] = biological target: biotinylated human FcRn (human) (UniProt P55899); assay: Biacore SPR, pH 6.0; remark: listed apart in the source
[14] = biological target: biotinylated human FcRn (human) (UniProt P55899); assay: Biacore, pH 6.0, apparent KD

Sequence of rat FcRn (rat) (P13599 23-298 limits assumed, chain 1 of 2): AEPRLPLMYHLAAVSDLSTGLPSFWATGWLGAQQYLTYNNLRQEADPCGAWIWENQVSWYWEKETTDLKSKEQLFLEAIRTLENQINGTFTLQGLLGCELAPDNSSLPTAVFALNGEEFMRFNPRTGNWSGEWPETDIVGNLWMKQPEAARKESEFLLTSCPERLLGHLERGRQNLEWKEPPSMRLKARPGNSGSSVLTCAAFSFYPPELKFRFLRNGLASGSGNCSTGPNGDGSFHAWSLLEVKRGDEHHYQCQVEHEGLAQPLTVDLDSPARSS
Sequence of rat FcRn (rat) (P07151 21-119 limits assumed, chain 2 of 2, further chain): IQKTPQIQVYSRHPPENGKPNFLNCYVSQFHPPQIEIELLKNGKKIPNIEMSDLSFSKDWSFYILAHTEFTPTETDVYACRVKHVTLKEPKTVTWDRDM

| Substance | Kd [1] [nM] | Kd [2] [nM] | Steady State RU [3] [RU] | FcRn affinity column elution pH [5] [pH] | Steady State RU [6] [RU] | Kd [7] [nM] | Ka [8] [M⁻¹] | Steady State RU [9] [RU] | Ratio (pH 6.0/pH 7.4) [10] | Steady State Binding, pH 7.4 (RU) [11] [RU] | Ratio (pH 6.0/pH 7.4) [12] | also measured |
| --- | --- | --- | --- | --- | --- | --- | --- | --- | --- | --- | --- | --- |
| mAb1 E380C (antibody) | 6310 | 6310 | 27.7 | 7.18 | – | – | – | – | – | – | – | Steady State RU [4]: 5.7 RU |
| mAb1 MEWN (T256E/T307W) (antibody) | 10.6 | – | – | – | 33 | 323 | 3.1e+06 | – | – | – | – | – |
| mAb1 MTQF (T307Q/N434F) (antibody) | 3.89 | – | – | – | 62.5 | 42.9 | 2.33e+07 | 34.2 | 681000 | 34.2 | 1.47e-06 | koff [1]: 0.0004 s⁻¹; kon [1]: 104000 M⁻¹ s⁻¹; koff [7]: 0.0246 s⁻¹; kon [7]: 574000 M⁻¹ s⁻¹ |
| mAb1 MEQF (T256E/T307Q/N434F) (antibody) | – | – | – | – | – | – | 142000 | – | – | – | – | – |
| mAb1 N434P (antibody) | 194 | 194 | 4.3 | 7.56 | – | – | – | – | – | – | – | Steady State RU [4]: 3.5 RU |
| mAb1 T256E (antibody) | 113 | 113 | 23 | 7.63 | 17 | – | – | 4.5 | – | – | – | Kd [13]: > 3000 nM; Steady State RU [4]: 4.8 RU |
| mAb1 MDTY (T256D/N434Y) (antibody) | 0.6 | – | – | – | 71.6 | 15.6 | 6.41e+07 | 37.1 | 1.73e+06 | 37.1 | – | koff [1]: 0.00025 s⁻¹; kon [1]: 413000 M⁻¹ s⁻¹; koff [7]: 0.0285 s⁻¹; kon [7]: 1.83e+06 M⁻¹ s⁻¹ |
| mAb1 MEWF (T256E/T307W/N434F) (antibody) | – | – | – | – | – | – | 5.62e+07 | – | 1.34e+06 | 41.9 | 7.46e-07 | – |
| mAb1 METF (T256E/N434F) (antibody) | 7.53 | – | – | – | 59 | 78.2 | 1.28e+07 | 23.3 | 549000 | 23.3 | – | koff [1]: 0.00081 s⁻¹; kon [1]: 108000 M⁻¹ s⁻¹; koff [7]: 0.0419 s⁻¹; kon [7]: 536000 M⁻¹ s⁻¹; Ratio [12]: 1.82e-06 |
| mAb1 MEQY (T256E/T307Q/N434Y) (antibody) | – | – | – | – | – | – | 2.38e+07 | – | 617000 | 38.6 | – | – |
| mAb1 MEQN (T256E/T307Q) (antibody) | 10.7 | – | – | – | 23.4 | 499 | 2e+06 | – | – | – | – | – |
| mAb1 YTQN (M252Y/T307Q) (antibody) | 4.11 | – | – | – | 49.2 | 278 | 3.6e+06 | 10.6 | 340000 | 10.6 | 2.94e-06 | koff [1]: 0.00105 s⁻¹; kon [1]: 255000 M⁻¹ s⁻¹; koff [7]: 0.096 s⁻¹; kon [7]: 345000 M⁻¹ s⁻¹ |
| mAb1 MTWF (T307W/N434F) (antibody) | 2.7 | – | – | – | 65.1 | 38.2 | 2.62e+07 | 30.5 | – | 30.5 | – | koff [1]: 0.00057 s⁻¹ |
| mAb1 T307M (antibody) | 279 | 279 | 15.3 | 7.4 | – | – | – | – | – | – | – | Steady State RU [4]: 4.4 RU |
| mAb1 Y436N (antibody) | 233 | 233 | 17.4 | 7.22 | – | – | – | – | – | – | – | Steady State RU [4]: 3.6 RU |
| mAb1 YTWF (M252Y/T307W/N434F) (antibody) | – | – | – | – | – | – | 6.54e+07 | – | 1.04e+06 | 62.6 | 9.57e-07 | – |
| mAb1 YETY (M252Y/T256E/N434Y) (antibody) | – | – | – | – | – | – | 3.34e+07 | – | 1.48e+06 | 22.6 | 6.77e-07 | – |
| mAb1 YTQY (M252Y/T307Q/N434Y) (antibody) | – | – | – | – | – | – | 6.33e+07 | – | 885000 | 71.5 | 1.13e-06 | – |
| mAb1 N434F (antibody; other documents disagree on this pair) | – | – | – | – | – | 165 | – | 22.2 | – | – | – | Kd [14]: 165 nM; Steady State RU [4]: 20.1 RU |
| mAb1 MDWF (T256D/T307W/N434F) (antibody) | – | – | – | – | – | – | 2.81e+07 | – | 597000 | 47.1 | 1.68e-06 | – |

Further lines, with some results ahead:

| Kd [1] [nM] | Kd [2] [nM] | Steady State RU [3] [RU] | FcRn affinity column elution pH [5] [pH] | Steady State RU [6] [RU] | Kd [7] [nM] | Ka [8] [M⁻¹] | Steady State RU [9] [RU] | Ratio (pH 6.0/pH 7.4) [10] | Steady State Binding, pH 7.4 (RU) [11] [RU] | Ratio (pH 6.0/pH 7.4) [12] | Substance | also measured |
| --- | --- | --- | --- | --- | --- | --- | --- | --- | --- | --- | --- | --- |
| 132 | 132 | 23.1 | 7.61 | – | – | – | – | – | – | – | mAb1 T307A (antibody) | Steady State RU [4]: 5.2 RU |
| 131 | 131 | 16.3 | 7.33 | – | – | – | – | – | – | – | mAb1 Y436H (antibody) | Steady State RU [4]: 3.6 RU |
| 4.11 | – | – | – | 63 | 32.4 | 3.09e+07 | 38.4 | 805000 | 38.4 | 1.24e-06 | mAb1 MTQY (T307Q/N434Y) (antibody) | koff [1]: 0.00048 s⁻¹; kon [1]: 116000 M⁻¹ s⁻¹; koff [7]: 0.0202 s⁻¹; kon [7]: 622000 M⁻¹ s⁻¹ |
| 1.78 | – | – | – | 63 | 29.9 | 3.34e+07 | 29.2 | 1.14e+06 | 29.2 | 8.74e-07 | mAb1 MDTF (T256D/N434F) (antibody) | koff [1]: 0.00039 s⁻¹; kon [1]: 218000 M⁻¹ s⁻¹; koff [7]: 0.029 s⁻¹; kon [7]: 968000 M⁻¹ s⁻¹ |
| – | – | – | – | – | – | 6.62e+06 | – | – | 55.3 | – | mAb1 MDQF (T256D/T307Q/N434F) (antibody) | – |
| 1140 | 1140 | 10.3 | 7.39 | – | – | – | – | – | – | – | mAb1 Y436W (antibody) | Steady State RU [4]: 3.7 RU |
| 0.62 | – | – | – | 69.6 | 21.5 | 4.65e+07 | 37.2 | 1.25e+06 | 37.2 | 8e-07 | mAb1 MTWY (T307W/N434Y) (antibody) | koff [1]: 0.0003 s⁻¹; kon [1]: 480000 M⁻¹ s⁻¹; koff [7]: 0.0317 s⁻¹; kon [7]: 1.48e+06 M⁻¹ s⁻¹ |
| – | – | – | – | – | – | 3.69e+07 | – | 747000 | 49.4 | – | mAb1 MDQY (T256D/T307Q/N434Y) (antibody) | Ratio [12]: 1.34e-06 |
| 111 | 111 | 19.2 | 7.75 | 21.9 | 8740 | – | – | – | – | – | mAb1 T307W (antibody) | Kd [14]: 8740 nM; Kd [13]: > 3000 nM |
| – | – | – | – | – | – | 7.04e+07 | – | 1.51e+06 | 46.6 | 6.62e-07 | mAb1 MEWY (T256E/T307W/N434Y) (antibody) | – |
| – | – | – | – | – | – | 6.41e+06 | – | 92100 | 69.6 | 1.09e-05 | mAb1 YEWN (M252Y/T256E/T307W) (antibody) | – |
| – | – | – | – | – | – | 2.96e+07 | – | 513000 | 57.7 | 1.95e-06 | mAb1 YDTF (M252Y/T256D/N434F) (antibody) | – |
| 0.29 | – | – | – | 79.3 | 18 | 5.56e+07 | 43.8 | 1.27e+06 | 43.8 | – | mAb1 YTTF (M252Y/N434F) (antibody) | koff [1]: 0.00012 s⁻¹; kon [1]: 403000 M⁻¹ s⁻¹; koff [7]: 0.023 s⁻¹; kon [7]: 1.27e+06 M⁻¹ s⁻¹; Ratio [12]: 7.88e-07 |
| – | – | – | – | – | – | 5.65e+07 | – | 943000 | 59.9 | 1.06e-06 | mAb1 YTQF (M252Y/T307Q/N434F) (antibody) | – |
| 131 | 131 | 21.9 | 7.61 | – | – | – | – | – | – | – | mAb1 T307F (antibody) | Steady State RU [4]: 4.9 RU |
| 7.71 | – | – | – | 62.2 | 62.6 | 1.6e+07 | 26.8 | 597000 | 26.8 | – | mAb1 METY (T256E/N434Y) (antibody) | koff [1]: 0.00098 s⁻¹; kon [1]: 127000 M⁻¹ s⁻¹; koff [7]: 0.0393 s⁻¹; kon [7]: 628000 M⁻¹ s⁻¹ |
| 149 | 149 | 21.9 | 7.33 | – | – | – | – | – | – | – | mAb1 K288D (antibody) | Steady State RU [4]: 3.8 RU |
| 190 | 190 | 20.4 | 7.39 | – | – | – | – | – | – | – | mAb1 K288N (antibody) | – |
| – | – | – | – | – | – | 1.01e+07 | – | 390000 | 25.9 | 2.56e-06 | mAb1 YDWN (M252Y/T256D/T307W) (antibody) | – |
